We go through two molecules from article PMC2659761 (Journal of molecular biology, 2008).

The data set “SEC” concerns the molecule itself. As to the kind of experiment: SEC. (In gel filtration, larger molecules generally elute earlier.)
Data set [1] has as its target T1, Cif full-length (cycle inhibiting factor) (Escherichia coli (EPEC and EHEC)), P0DUW5.
T1 chain: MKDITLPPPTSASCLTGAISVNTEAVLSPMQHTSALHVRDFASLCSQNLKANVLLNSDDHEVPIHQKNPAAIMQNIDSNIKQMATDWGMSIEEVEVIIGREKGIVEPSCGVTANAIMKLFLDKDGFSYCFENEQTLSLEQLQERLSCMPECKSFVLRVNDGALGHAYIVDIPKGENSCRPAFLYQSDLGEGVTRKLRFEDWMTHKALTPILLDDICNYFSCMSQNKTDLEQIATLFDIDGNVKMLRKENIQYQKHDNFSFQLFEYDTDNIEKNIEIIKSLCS
As to the kind of experiment: SEC. Particulars: remark: other sources report otherwise.

B1: Cif(100-282)-His, cycle inhibiting factor residues 100-282 with C-terminal His6 tag (the crystallized construct) (domain or fragment)
chain: REKGIVEPSCGVTANAIMKLFLDKDGFSYCFENEQTLSLEQLQERLSCMPECKSFVLRVNDGALGHAYIVDIPKGENSCRPAFLYQSDLGEGVTRKLRFEDWMTHKALTPILLDDICNYFSCMSQNKTDLEQIATLFDIDGNVKMLRKENIQYQKHDNFSFQLFEYDTDNIEKNIEIIKSLCS
The term stoichiometry N denotes the number of molecules, sites or subunits per partner or assembly. As to B1, the “stoichiometry N” value in the data set “SEC” is 2.

B2: Cif full-length (cycle inhibiting factor), P0DUW5 1-282 (natural protein)
chain: MKDITLPPPTSASCLTGAISVNTEAVLSPMQHTSALHVRDFASLCSQNLKANVLLNSDDHEVPIHQKNPAAIMQNIDSNIKQMATDWGMSIEEVEVIIGREKGIVEPSCGVTANAIMKLFLDKDGFSYCFENEQTLSLEQLQERLSCMPECKSFVLRVNDGALGHAYIVDIPKGENSCRPAFLYQSDLGEGVTRKLRFEDWMTHKALTPILLDDICNYFSCMSQNKTDLEQIATLFDIDGNVKMLRKENIQYQKHDNFSFQLFEYDTDNIEKNIEIIKSLCS
In data set [1], B2 showed a stoichiometry N of 2.
